For experiment [1], the target named is Mic60solΔMito (Chaetomium thermophilum Mic60, residues 208–608) (Chaetomium thermophilum). Put plainly: native gel or EMSA; blue native (BN)-PAGE of purified Mic60 constructs. (In general: In EMSA bound probe runs differently from free probe, usually more slowly.)
Experiment [2] deals with Mic60sol (Chaetomium thermophilum Mic60, residues 208–691) (Chaetomium thermophilum). Nature of the experiment: AUC; sedimentation velocity (40,000 r.p.m., 3.5 h) and sedimentation equilibrium (9,000 r.p.m.); 20 mM HEPES/NaOH pH 7.3, 150 mM NaCl, 7 °C; 0.02–2 mg ml^-1 Mic60sol.
For experiment [3] the target is unchanged. Nature of the experiment: native gel or EMSA; blue native (BN)-PAGE of purified Mic60 constructs.
The target of experiment [4] is Mic60solΔMitoΔLBS2 (Chaetomium thermophilum Mic60, residues 208–582) (Chaetomium thermophilum). Described as above.
In experiment [5] the target is Mic60sol (Chaetomium thermophilum Mic60, residues 208–691) (Chaetomium thermophilum). Put plainly: ITC; about 450 μM Mic19 construct in the syringe titrated into about 40 μM Mic60 construct in the cell; 10 °C; 20 mM HEPES/NaOH pH 7.5, 150 mM NaCl; untagged proteins. On the technique in general: Isothermal titration calorimetry measures the heat released or taken up as one component is titrated into another.

The target in experiment [6] is full-length Mic19 (Chaetomium thermophilum) (Chaetomium thermophilum). Nature of the experiment: SEC; gel filtration of purified Mic19 and its C132S/C143S mutant; the dimers were sensitive to reducing agents in SDS–PAGE. In general terms: SEC sorts molecules by how far they enter the pores of the column.

The stoichiometry N is the number of molecules, sites or subunits per partner or assembly. Take “Mic60solΔMito (Chaetomium thermophilum Mic60, residues 208–608) (domain or fragment)”: the stoichiometry N in experiment [1] came to 2.
With “Mic60sol (Chaetomium thermophilum Mic60, residues 208–691) (domain or fragment)”, the stoichiometry N in experiment [2] and in experiment [3] was 2 each time.
With “Mic60solΔMitoΔLBS2 (Chaetomium thermophilum Mic60, residues 208–582) (domain or fragment)”, in experiment [4], the stoichiometry N worked out at 2.
A word on the Kd: it is a measure of binding affinity in units of concentration. The low end stands for higher affinity, the high end for lower affinity. In experiment [5], “C132S/C143S Mic19 mutant (Chaetomium thermophilum) (natural protein)” showed a Kd of 3500 nM and a stoichiometry N of 1.
As to “full-length Mic19 (Chaetomium thermophilum) (natural protein)”, in experiment [6], the percent dimers worked out at 30% and the stoichiometry N was determined as 2. In experiment [5], this substance came in with a Kd of 170 nM and a stoichiometry N of 0.73.

The values above are taken from publication PMC5460017.
